These are literature values, as cited in PMC12513479.

As a reminder, the Kd is the constant that tells how readily two partners part at equilibrium.

One series deals with IFNAR2 (Homo sapiens) (UniProt P48551).
A further series addresses IFNAR1 (Homo sapiens) (UniProt P17181).
UniProt P17181, sequence (P17181 28-436): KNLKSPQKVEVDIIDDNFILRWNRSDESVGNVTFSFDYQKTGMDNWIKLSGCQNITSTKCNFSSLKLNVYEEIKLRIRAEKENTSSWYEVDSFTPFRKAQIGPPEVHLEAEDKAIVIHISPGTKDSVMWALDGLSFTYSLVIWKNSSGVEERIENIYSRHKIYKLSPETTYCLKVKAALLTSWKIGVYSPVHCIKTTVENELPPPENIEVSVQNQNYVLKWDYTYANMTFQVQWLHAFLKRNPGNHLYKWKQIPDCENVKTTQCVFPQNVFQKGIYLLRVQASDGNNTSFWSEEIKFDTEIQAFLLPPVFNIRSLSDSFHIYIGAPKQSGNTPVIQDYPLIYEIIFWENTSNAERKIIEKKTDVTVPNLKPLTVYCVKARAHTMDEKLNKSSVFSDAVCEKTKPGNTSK

UniProt P48551, sequence (P48551 27-243): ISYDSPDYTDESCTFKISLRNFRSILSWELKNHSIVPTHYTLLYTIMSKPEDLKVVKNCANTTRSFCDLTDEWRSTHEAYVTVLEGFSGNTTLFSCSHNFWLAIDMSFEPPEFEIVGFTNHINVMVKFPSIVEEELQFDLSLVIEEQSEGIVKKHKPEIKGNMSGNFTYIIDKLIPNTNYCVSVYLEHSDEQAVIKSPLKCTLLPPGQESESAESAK

In the case of IFN-β (from UniProt P01574), the Kd was 0.1 nM in the series with IFNAR2 (Homo sapiens) and 100 nM with IFNAR1 (Homo sapiens).
